The subject of the data set is Escherichia coli TOP10. As to the kind of experiment: shrunken log2 fold change of peptide-encoding DNA abundance (4.5 h post-induction vs induction); higher = less antimicrobial activity (less host growth inhibition). To be noted: time post-induction: 4.5 h; library: site-saturation at positions 5, 18, 19, 20.
RRIRERPPRLPRPRPRPYGNPRP: the “shrunken log2 fold change” value is -0.0871.
The figure for RRIRLRPPRLPRPRPRPAENPRP is 0.0583; for RRIRSRPPRLPRPRPRPETRPRP it is 0.192.
The figure for RRIRTRPPRLPRPRPRPQQLPRP is 1.75.
Regarding RRIRQRPPRLPRPRPRPHRFPRP, the “shrunken log2 fold change” value was -0.275.
The figure for RRIRQRPPRLPRPRPRPMIMPRP is 0.0999.
The figure for RRIRIRPPRLPRPRPRPFVTPRP is -0.938; for RRIRLRPPRLPRPRPRPYDNPRP it is -1.57; for RRIRCRPPRLPRPRPRPMVGPRP it is -0.00233.
The figure for RRIRVRPPRLPRPRPRPEQIPRP is -0.0137; for RRIRFRPPRLPRPRPRPWKIPRP it is -0.0171.
As to RRIRSRPPRLPRPRPRPNVPPRP, the “shrunken log2 fold change” value was -0.131.
The figure for RRIRERPPRLPRPRPRPSEVPRP is -0.12; for RRIRCRPPRLPRPRPRPFDHPRP it is 0.0529.
The figure for RRIRIRPPRLPRPRPRPAFQPRP is 0.107.
The figure for RRIRVRPPRLPRPRPRPACGPRP is 0.122; for RRIRFRPPRLPRPRPRPKQNPRP it is 0.249; for RRIRPRPPRLPRPRPRPEGPPRP it is -0.147.
On to RRIRGRPPRLPRPRPRPWPEPRP, for which the “shrunken log2 fold change” value was determined as 0.29.
The figure for RRIRLRPPRLPRPRPRPQKIPRP is 0.0459; for RRIRIRPPRLPRPRPRPTKWPRP it is -0.15; for RRIRLRPPRLPRPRPRPDYVPRP it is -0.432.
Take RRIRMRPPRLPRPRPRPSCVPRP: the “shrunken log2 fold change” value is 0.22.
The figure for RRIRLRPPRLPRPRPRPDRTPRP is 0.0027; for RRIRHRPPRLPRPRPRPKRHPRP it is 0.0834; for RRIRRRPPRLPRPRPRPLQCPRP it is 0.18.
The figure for RRIRVRPPRLPRPRPRPNIFPRP is -0.234.
For RRIRRRPPRLPRPRPRPEQNPRP, the “shrunken log2 fold change” value worked out at 0.849.
The figure for RRIRYRPPRLPRPRPRPHNIPRP is -0.238.
The figure for RRIRARPPRLPRPRPRPCNCPRP is 0.00702; for RRIRGRPPRLPRPRPRPMFAPRP it is 1.57.
Consider RRIRQRPPRLPRPRPRPQTAPRP, for which the “shrunken log2 fold change” value was -0.000297.
The figure for RRIRSRPPRLPRPRPRPMAQPRP is 0.112.
The figure for RRIRVRPPRLPRPRPRPALVPRP is 0.464.
Regarding RRIRPRPPRLPRPRPRPNNRPRP, the “shrunken log2 fold change” value is -0.349.
The figure for RRIRVRPPRLPRPRPRPNYSPRP is -0.438.
The figure for RRIRLRPPRLPRPRPRPNKPPRP is -0.0372; for RRIRRRPPRLPRPRPRPGCMPRP it is 0.835; for RRIRFRPPRLPRPRPRPCMKPRP it is 0.068.
Consider RRIRFRPPRLPRPRPRPPVPPRP, for which the “shrunken log2 fold change” value stood at 0.859.
The figure for RRIRMRPPRLPRPRPRPSLIPRP is -0.245; for RRIRIRPPRLPRPRPRPVLNPRP it is -0.492; for RRIRMRPPRLPRPRPRPQIMPRP it is -0.0466.
The figure for RRIRQRPPRLPRPRPRPRENPRP is 0.0469.
The figure for RRIRERPPRLPRPRPRPPPCPRP is 0.0452; for RRIRKRPPRLPRPRPRPFICPRP it is 0.0135; for RRIRRRPPRLPRPRPRPPYCPRP it is 0.256.
As to RRIRGRPPRLPRPRPRPECEPRP, the “shrunken log2 fold change” value was 1.88.
The figure for RRIRSRPPRLPRPRPRPMYSPRP is -1.24; for RRIRPRPPRLPRPRPRPMRTPRP it is 0.357; for RRIRLRPPRLPRPRPRPHEVPRP it is -0.0201.
RRIRVRPPRLPRPRPRPEHPPRP: the “shrunken log2 fold change” value worked out at 0.0168.
The figure for RRIRTRPPRLPRPRPRPPWVPRP is 0.128.
For the sequence RRIRQRPPRLPRPRPRPAANPRP, the “shrunken log2 fold change” value worked out at 0.0666.
The figure for RRIRMRPPRLPRPRPRPNFHPRP is -0.0453.
Regarding RRIRVRPPRLPRPRPRPVWKPRP, the “shrunken log2 fold change” value was 0.0859.
Turning to RRIRDRPPRLPRPRPRPDINPRP, the “shrunken log2 fold change” value is 0.47.
In the case of RRIRRRPPRLPRPRPRPYWIPRP, the “shrunken log2 fold change” value is -0.918.
The figure for RRIRYRPPRLPRPRPRPFETPRP is 0.111.
The figure for RRIRKRPPRLPRPRPRPAPAPRP is 1.05; for RRIRWRPPRLPRPRPRPNKLPRP it is -0.277.
The figure for RRIRRRPPRLPRPRPRPCVRPRP is 0.11; for RRIRDRPPRLPRPRPRPREGPRP it is 1.01; for RRIRSRPPRLPRPRPRPHYCPRP it is -0.289.
For the sequence RRIRLRPPRLPRPRPRPRQYPRP, the “shrunken log2 fold change” value is -0.075.
The figure for RRIRSRPPRLPRPRPRPAVQPRP is -0.0326; for RRIRARPPRLPRPRPRPYKEPRP it is -0.423; for RRIRQRPPRLPRPRPRPPWWPRP it is 0.498.
For the sequence RRIRLRPPRLPRPRPRPCIAPRP, the “shrunken log2 fold change” value is -0.185.
The figure for RRIRERPPRLPRPRPRPCLHPRP is -0.0164; for RRIRGRPPRLPRPRPRPFCPPRP it is -0.0253.
On to RRIRFRPPRLPRPRPRPQMRPRP, for which the “shrunken log2 fold change” value was 0.495.
The figure for RRIRMRPPRLPRPRPRPPMPPRP is 0.703.
The figure for RRIRNRPPRLPRPRPRPNHVPRP is -0.117.
The figure for RRIRDRPPRLPRPRPRPAYLPRP is -0.011; for RRIRKRPPRLPRPRPRPWHAPRP it is -0.0686.
On to RRIRQRPPRLPRPRPRPLAQPRP, for which the “shrunken log2 fold change” value stood at 0.233.
The figure for RRIRLRPPRLPRPRPRPYLCPRP is -0.0953; for RRIRDRPPRLPRPRPRPKFCPRP it is -0.0512; for RRIRTRPPRLPRPRPRPRWAPRP it is 0.541.
The figure for RRIRCRPPRLPRPRPRPSDFPRP is -0.203; for RRIRFRPPRLPRPRPRPRPEPRP it is 0.477.
The figure for RRIRQRPPRLPRPRPRPVRIPRP is -0.0391.
For RRIRIRPPRLPRPRPRPFVSPRP, the “shrunken log2 fold change” value was -0.571.
The figure for RRIRCRPPRLPRPRPRPPDTPRP is 0.269; for RRIRCRPPRLPRPRPRPTDCPRP it is 0.0318; for RRIRSRPPRLPRPRPRPLANPRP it is 0.271.
The figure for RRIRKRPPRLPRPRPRPPRTPRP is 0.829; for RRIRCRPPRLPRPRPRPPSKPRP it is 0.133.
The figure for RRIRERPPRLPRPRPRPAESPRP is -0.049.
Regarding RRIRYRPPRLPRPRPRPQYDPRP, the “shrunken log2 fold change” value is -0.0291.
The figure for RRIRSRPPRLPRPRPRPSRTPRP is 0.822; for RRIRPRPPRLPRPRPRPCLYPRP it is -0.595; for RRIRDRPPRLPRPRPRPFMKPRP it is -0.0698.
The figure for RRIRIRPPRLPRPRPRPYVWPRP is -1.33; for RRIRMRPPRLPRPRPRPSRVPRP it is 0.885.
The figure for RRIRYRPPRLPRPRPRPLELPRP is 0.0293.
Take RRIRIRPPRLPRPRPRPAKKPRP: the “shrunken log2 fold change” value came to 0.0493.
The figure for RRIRDRPPRLPRPRPRPDIMPRP is 0.0348.
The figure for RRIRCRPPRLPRPRPRPVFFPRP is -0.0521; for RRIRPRPPRLPRPRPRPCCPPRP it is -0.377.
The figure for RRIRLRPPRLPRPRPRPICHPRP is -0.368.
Turning to RRIRGRPPRLPRPRPRPGGLPRP, the “shrunken log2 fold change” value was 0.842.
The figure for RRIRWRPPRLPRPRPRPTYFPRP is -0.359; for RRIRMRPPRLPRPRPRPWYLPRP it is -0.0736.
The figure for RRIRRRPPRLPRPRPRPEWVPRP is 0.344; for RRIRQRPPRLPRPRPRPSPIPRP it is -0.0339; for RRIRCRPPRLPRPRPRPHREPRP it is -0.0514.
The figure for RRIRIRPPRLPRPRPRPQNNPRP is -0.957; for RRIRSRPPRLPRPRPRPLGLPRP it is 0.204; for RRIRIRPPRLPRPRPRPKWHPRP it is -0.27.
As to RRIRSRPPRLPRPRPRPECYPRP, the “shrunken log2 fold change” value was determined as 0.133.
The figure for RRIRHRPPRLPRPRPRPKGQPRP is -0.00141; for RRIRRRPPRLPRPRPRPGRCPRP it is 0.27; for RRIRYRPPRLPRPRPRPQMKPRP it is -1.17.
RRIRFRPPRLPRPRPRPFNNPRP: the “shrunken log2 fold change” value was -0.262.
Take RRIRWRPPRLPRPRPRPCEMPRP: the “shrunken log2 fold change” value was found to be 0.0732.
The figure for RRIRRRPPRLPRPRPRPSGFPRP is 0.0452; for RRIRHRPPRLPRPRPRPWCLPRP it is -1.67; for RRIRQRPPRLPRPRPRPPAFPRP it is 0.379.
Regarding RRIRGRPPRLPRPRPRPMTPPRP, the “shrunken log2 fold change” value worked out at 1.07.
The figure for RRIRWRPPRLPRPRPRPSQDPRP is 0.22.
The figure for RRIRFRPPRLPRPRPRPWQKPRP is -0.097; for RRIRWRPPRLPRPRPRPSMHPRP it is -0.0863; for RRIRERPPRLPRPRPRPWEDPRP it is -0.0727.

For the origin of these results see the supplement of paper PMC9112550, “Optimization of the antimicrobial peptide Bac7 by deep mutational scanning” (BMC Biology, 2022).
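Also: peptides expressed intracellularly from a pBAD plasmid library in pooled LB shake-flask culture, induced with 0.3% L-arabinose, DNA abundance read by NGS, three biological replicates, DESeq2 with apeglm shrinkage.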
